The values below come from patent US20220332804A1 (CSL INNOVATION, published 2022).

Common to all, as to assay: SPR, KD relative to WT C2;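 also: biacore SPR at 37 °C, anti-C2 mAbs captured on anti-human IgG chips with alanine or serine point mutants of C2 as analyte, KD from 1:1 fit compared with wild-type C2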
For orientation: In SPR one partner is held on a chip, and binding of the other changes the refractive index at the surface.

Test [1] deals with T1, human C2 K274A (human, UniProt P06681 21-752).
T1 sequence: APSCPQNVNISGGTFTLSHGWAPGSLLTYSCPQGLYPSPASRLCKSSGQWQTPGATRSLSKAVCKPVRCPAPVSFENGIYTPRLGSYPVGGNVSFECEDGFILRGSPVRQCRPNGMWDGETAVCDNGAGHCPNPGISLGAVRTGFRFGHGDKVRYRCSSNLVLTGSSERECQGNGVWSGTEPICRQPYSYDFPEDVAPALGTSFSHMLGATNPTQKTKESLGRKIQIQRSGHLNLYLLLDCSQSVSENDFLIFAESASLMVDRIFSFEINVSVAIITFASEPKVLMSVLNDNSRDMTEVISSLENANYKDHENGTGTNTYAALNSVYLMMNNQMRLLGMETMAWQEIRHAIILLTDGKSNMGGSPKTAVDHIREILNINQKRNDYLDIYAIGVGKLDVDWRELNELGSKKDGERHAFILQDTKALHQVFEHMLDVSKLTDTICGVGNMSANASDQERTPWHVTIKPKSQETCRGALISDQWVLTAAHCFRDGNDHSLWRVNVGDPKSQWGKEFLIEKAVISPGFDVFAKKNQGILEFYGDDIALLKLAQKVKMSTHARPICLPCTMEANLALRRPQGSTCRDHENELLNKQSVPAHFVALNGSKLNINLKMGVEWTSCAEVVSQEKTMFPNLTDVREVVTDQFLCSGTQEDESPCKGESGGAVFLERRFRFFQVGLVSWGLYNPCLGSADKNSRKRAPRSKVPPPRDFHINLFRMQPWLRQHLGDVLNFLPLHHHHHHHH

Test [2] addresses T2, human C2 N325A (human, UniProt P06681 21-752).
T2 sequence: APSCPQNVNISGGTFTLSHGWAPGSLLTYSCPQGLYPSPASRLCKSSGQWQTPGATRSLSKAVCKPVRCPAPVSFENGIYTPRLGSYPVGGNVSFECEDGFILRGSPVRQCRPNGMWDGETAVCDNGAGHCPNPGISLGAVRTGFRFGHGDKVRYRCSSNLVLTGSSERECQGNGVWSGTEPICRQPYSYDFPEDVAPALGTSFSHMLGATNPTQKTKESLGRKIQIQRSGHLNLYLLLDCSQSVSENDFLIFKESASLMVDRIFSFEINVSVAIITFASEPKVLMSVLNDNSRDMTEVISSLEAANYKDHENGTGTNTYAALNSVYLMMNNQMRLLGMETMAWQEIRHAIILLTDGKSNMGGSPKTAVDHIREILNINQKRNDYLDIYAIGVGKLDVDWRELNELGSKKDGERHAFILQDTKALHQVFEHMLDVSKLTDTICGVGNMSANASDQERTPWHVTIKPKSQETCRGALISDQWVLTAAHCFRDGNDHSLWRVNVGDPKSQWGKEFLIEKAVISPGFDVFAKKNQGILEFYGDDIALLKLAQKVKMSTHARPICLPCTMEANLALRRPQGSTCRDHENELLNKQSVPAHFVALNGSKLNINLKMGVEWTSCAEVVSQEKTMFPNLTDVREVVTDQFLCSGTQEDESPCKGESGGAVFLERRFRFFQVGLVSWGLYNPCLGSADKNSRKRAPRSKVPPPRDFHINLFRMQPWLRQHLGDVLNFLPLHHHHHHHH

The target of test [3] is T3, human C2 V448A (human, UniProt P06681 21-752).
T3 sequence: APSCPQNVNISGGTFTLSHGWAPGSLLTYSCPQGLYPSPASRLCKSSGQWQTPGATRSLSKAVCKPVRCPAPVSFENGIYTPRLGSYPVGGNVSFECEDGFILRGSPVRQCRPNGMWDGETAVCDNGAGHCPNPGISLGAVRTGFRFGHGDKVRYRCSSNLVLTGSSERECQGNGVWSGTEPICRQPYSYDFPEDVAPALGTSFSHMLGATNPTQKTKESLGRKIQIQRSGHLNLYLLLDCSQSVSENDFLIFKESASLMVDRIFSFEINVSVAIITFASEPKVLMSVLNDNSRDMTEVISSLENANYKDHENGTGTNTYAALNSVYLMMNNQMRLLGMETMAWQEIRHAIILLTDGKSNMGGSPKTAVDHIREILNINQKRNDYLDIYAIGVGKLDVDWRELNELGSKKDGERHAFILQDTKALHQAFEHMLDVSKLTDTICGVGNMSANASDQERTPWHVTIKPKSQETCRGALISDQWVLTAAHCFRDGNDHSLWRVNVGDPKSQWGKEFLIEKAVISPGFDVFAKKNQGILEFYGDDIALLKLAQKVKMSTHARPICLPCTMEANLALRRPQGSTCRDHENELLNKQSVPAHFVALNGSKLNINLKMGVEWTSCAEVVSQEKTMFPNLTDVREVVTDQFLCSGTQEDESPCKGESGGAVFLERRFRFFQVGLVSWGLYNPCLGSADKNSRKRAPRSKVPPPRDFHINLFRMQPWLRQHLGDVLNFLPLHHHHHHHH

Test [4] has as its target T4, human C2 L453A (human, UniProt P06681 21-752).
T4 sequence: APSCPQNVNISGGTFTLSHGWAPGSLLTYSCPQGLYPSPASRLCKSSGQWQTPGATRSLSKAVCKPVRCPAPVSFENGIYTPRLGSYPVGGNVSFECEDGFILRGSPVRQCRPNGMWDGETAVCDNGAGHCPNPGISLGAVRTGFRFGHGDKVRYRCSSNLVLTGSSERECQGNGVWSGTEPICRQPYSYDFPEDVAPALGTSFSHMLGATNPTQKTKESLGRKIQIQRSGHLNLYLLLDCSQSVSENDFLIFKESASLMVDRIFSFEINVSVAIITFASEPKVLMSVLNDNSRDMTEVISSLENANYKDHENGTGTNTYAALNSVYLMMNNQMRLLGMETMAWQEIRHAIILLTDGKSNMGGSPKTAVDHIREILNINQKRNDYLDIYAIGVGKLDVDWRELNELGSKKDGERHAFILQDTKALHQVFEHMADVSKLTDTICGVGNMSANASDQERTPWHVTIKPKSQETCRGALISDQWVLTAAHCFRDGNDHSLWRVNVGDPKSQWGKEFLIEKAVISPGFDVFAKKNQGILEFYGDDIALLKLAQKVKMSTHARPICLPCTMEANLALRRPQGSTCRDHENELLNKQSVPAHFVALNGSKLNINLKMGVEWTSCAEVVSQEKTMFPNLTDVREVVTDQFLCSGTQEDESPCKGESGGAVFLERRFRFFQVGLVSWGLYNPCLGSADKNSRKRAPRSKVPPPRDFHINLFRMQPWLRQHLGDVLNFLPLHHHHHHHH

B1: RF16-242 (antibody, human IgG4 S228P, lambda, V domains shown)
VH: EVQLLQSGAEVKKPGESLKISCKGSGYSFTSYWIGWVRQMPGKGLEWMGIIYPGDSDTRYSPSFQGQVTISADKSISTAYLQWSSLKASDTAMYYCARRGHYGDYFDYWGQGTLVTVSS
VL: SYELTQPPSVSVSPGQTARITCSGDALPKKYAYWYHQKSGQAPVLVIYEDRRRPSEIPERFSGSSSGTMATLTITGAQVEDEGVYFCYSRDRAGNQRVFGGGTQLTVLG
notes: pH-dependent anti-C2 antibody from a phage display library
As to B1, the Fold diff in test [1] came out at 12 fold; in test [2], 6 fold; in test [3], 1 fold; in test [4], 1 fold.
